# Assay results reported in patent KR20230078152A (dated 2023).
# Target: human PSMA (prostate-specific membrane antigen) expressed on LNCaP cells (human, UniProt Q04609 1-750)
# Assay: cell-based or functional assay
# Sequence of human PSMA (prostate-specific membrane antigen) expressed on LNCaP cells (Q04609 whole entry): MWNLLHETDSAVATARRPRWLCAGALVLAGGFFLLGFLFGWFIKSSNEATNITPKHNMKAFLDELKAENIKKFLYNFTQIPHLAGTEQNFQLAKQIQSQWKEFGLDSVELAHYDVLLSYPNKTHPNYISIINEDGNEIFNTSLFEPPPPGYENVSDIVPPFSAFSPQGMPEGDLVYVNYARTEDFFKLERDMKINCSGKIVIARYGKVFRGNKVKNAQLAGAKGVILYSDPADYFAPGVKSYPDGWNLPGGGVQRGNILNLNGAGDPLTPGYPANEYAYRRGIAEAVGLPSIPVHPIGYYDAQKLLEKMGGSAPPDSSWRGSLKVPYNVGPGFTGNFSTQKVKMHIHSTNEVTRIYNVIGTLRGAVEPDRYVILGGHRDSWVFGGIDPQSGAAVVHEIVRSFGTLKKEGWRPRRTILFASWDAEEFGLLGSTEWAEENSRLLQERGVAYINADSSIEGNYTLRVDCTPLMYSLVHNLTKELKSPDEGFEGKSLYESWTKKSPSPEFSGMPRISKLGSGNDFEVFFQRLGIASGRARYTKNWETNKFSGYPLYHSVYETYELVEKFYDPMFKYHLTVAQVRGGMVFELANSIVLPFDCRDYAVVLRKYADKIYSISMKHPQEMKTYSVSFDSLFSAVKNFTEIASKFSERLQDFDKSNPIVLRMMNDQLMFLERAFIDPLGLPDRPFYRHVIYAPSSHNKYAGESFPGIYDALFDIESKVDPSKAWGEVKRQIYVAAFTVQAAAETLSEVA
binder,measurement,value
"PSMA 타겟 항체-약물 접합체 (PSMA target antibody-MMAE conjugate) (other, DAR 8.36, MMAE conjugated through a VC-PAB linker (antibody MMAE Conjugation Kit), DAR 8.36; sites not stated) VH: EVQLQQSGPELVKPGASVKISCKASGYAFSSSWMNWVKQRPGQGLEWIGRIYPADGDTNYNGKFKGKATLTADKSSSTAYMQLSSLTSVDSAVYFCARCGWDGGVYYAMDYWGQGTSVTVSS VL: DIVMTQSPASLAVSLGQRATISCRASKSVTTSGYSYMHWYQQKPGQPPKLLIYLASNLESGVPARFSGSGSGTDFTLNIHPVEEEDAATYYCQHSRELPRTFGGGTKLEIK","cytotoxicity on LNCaP cells (Cell counting kit-8, 72 h), IC50",500 pM
